The target of data set [1] is T1, HIV-1 reverse transcriptase (Human immunodeficiency virus 1, UniProt P03366;P03366 P03366:600-1159,P03366:600-1039). Briefly: inhibition; Ki', RNA-dependent DNA polymerase activity. The following applies: tags: expressed in E. coli, purified per Davies et al. 1991. From the text: (§1) Assay For Inhibition of RNA-Dependent DNA Polymerase Activity. A substrate for the RNA-dependent DNA polymerase activity of HIV-1 RT was assembled by annealing an 18 nucleotide, 5' end-labeled DNA primer to a 30 nucleotide RNA template with a complementary 3' end (see FIG. 10), and purifying the duplex on a 12% non-denaturing acrylamide gel. The primer sequence matched the 3' terminal 18 nucleotides of tRNA^{Lys,3}, responsible for priming minus-strand DNA synthesis of the HIV-1 genome, and the template sequence paralleled the HIV-1 genomic primer binding site and downstream 12 nucleotides. A dilution series of inhibitory ssDNA ligand (to give a final concentration of 0, 1, 3, 9, 27, or 81 nM) was denatured in HRT Buffer at 70° C. for 5 minutes and allowed to renature slowly at 20° C. The primer:template substrate was added to a final concentration of 40 nM, along with dNTP's at 400 μM. The 10 μl reaction was initiated with the addition of either HIV-1, AMV, or MMLV-RT (to give a final concentration of 10 nM), allowed to proceed for 5 minutes at 37° C., and terminated with one volume of formamide. Extension products were separated on an 8% denaturing acrylamide gel and quantitated with an Ambis radioanalytic imager.
The ability of each of the 8 isolates to inhibit the RNA-dependent DNA polymerase activity of HIV-1 RT was assayed by measuring the decrease in extension product formation from a primer::template substrate as a function of inhibitor concentration (FIGS. 10A–10E). The substrate for the inhibition assay was a DNA:RNA heteroduplex consisting of an 18 nucleotide end-labeled DNA primer (SEQ ID NO: 74) identical in sequence to the 3' end of tRNA^{Lys,3} annealed to a 30 nucleotide RNA template (SEQ ID NO: 75) whose sequence matches the genomic primer binding site and the first twelve transcribed nucleotides. Extension reactions were performed as described in Example 1 in the presence of 0, 81, 27, 9, 3, and 1 nM inhibitor as indicated in FIG. 10.

Data set [2] addresses T1, HIV-1 reverse transcriptase. Briefly: filter; first 49 nt of RT1. Particulars: tags: expressed in E. coli, purified per Davies et al. 1991.
Data set [3] has the same target. Briefly: filter; HRT buffer, 6 mM MgCl2, 37 C. The following applies: tags: expressed in E. coli, purified per Davies et al. 1991, label: 5'-32P. Here is the method:
Nitrocellulose Filter Binding Assays. Oligonucleotides bound to proteins can be effectively separated from the unbound species by filtration through nitrocellulose membrane filters (Yarus, M. and Berg, P. (1970) Anal. Biochem. 35:450–465; Lowary, P. T. and Uhlenbeck, O. C. (1987) Nucleic Acids Res. 15:10483–10493; Tuerk, C. and Gold, L. (1990) Science 249:505–510). The affinity of the random ssDNA library for HIV-1 RT was determined using a protein excess nitrocellulose filter binding assay as described in Carey, J. et al. (1983) Biochemistry 22:2601–2609. Selections were performed with a saturating ssDNA concentration to promote competition among DNA ligands for a limited number of available target binding sites.
(§2) Binding Curves Confirm High Affinity of Individual Ligands. Affinity values of each of the eight chosen isolates for HIV-1 RT were measured using the filter binding assay described in Example 1 (FIGS. 7A–C). […] Differences in maximum percent bound likely reflect competing ligand structures with lower affinity. […] Indicated dissociation constants were determined as in Example 1.

For data set [4] the target is unchanged. The data set can be described thus: inhibition; Ki', RNA-dependent DNA polymerase activity, 10 nM RT, 40 nM substrate, 37 C. The following applies: tags: expressed in E. coli, purified per Davies et al. 1991; label: 5'-32P; internal loop (AA opposite CG) helix.
Text: as §1, with “imager. […]” for “imager.”

The target is the same in data set [5]. The data set can be described thus: filter; competition against RT1 gave Kc 3 nM (Example 5, FIG. 14). The following applies: tags: expressed in E. coli, purified per Davies et al. 1991; pseudoknot. Here is the method:
15:10483–10493; Tuerk, C. and Gold, L. (1990) Science 249:505–510). The affinity of the random ssDNA library for HIV-1 RT was determined using a protein excess nitrocellulose filter binding assay as described in Carey, J. et al. (1983) Biochemistry 22:2601–2609. Selections were performed with a saturating ssDNA concentration to promote competition among DNA ligands for a limited number of available target binding sites.
as §2

Nine molecules from patent US5786462, “High affinity ssDNA ligands of HIV-1 reverse transcriptase” (NeXstar Pharmaceuticals, Inc.) can be followed below.

For orientation: Ki means the dissociation constant of the complex between target and ligand, obtained from inhibition or displacement. A higher Ki goes with lower affinity. Broadly, the Kd is the equilibrium constant for the complex coming apart.

B1: RT4 (ssDNA)
DNA: ATCCGCCTGATTAGCGATACTTTAGCAAAGTTGAAGCCGGACTAACAAGCTCTACGACTTGAGCAAAATCACCTGCAGGGG
B1 registered an inhibition constant Ki in data set [1] (label: 5'-32P, internal loop variant (AA opposite AG)) of 4.1 nM.

B2: RT10 (ssDNA)
DNA: ATCCGCCTGATTAGCGATACTTATTTGCCCTTGCAGGCCGCAGGAGTGCTAGCAGTACTTGAGCAAAATCACCTGCAGGGG
The molecule B2 came in with an inhibitory constant (Ki) in data set [1] (label: 5'-32P, intramolecular primer:template junction) of 62 nM. ATCCGCCTGAATAGCGATACTCAGAAGGATAAACTGTCCAGAACTTGGA (ssDNA) [RT1t49] returned a Kd in data set [2] of 4 nM.

B3: RT1 (ssDNA)
DNA: ATCCGCCTGATTAGCGATACTCAGAAGGATAAACTGTCCAGAACTTGGAATATATCACTTGAGCAAAATCACCTGCAGGGG
Turning to B3, in data set [3] (internal loop (AA opposite CG) helix), the Kd was around 1 nM. The molecule also came in with a Ki in data set [4] of 0.3 nM.

B4: RT8 (ssDNA)
DNA: ATCCGCCTGATTAGCGATACTAGCCAGTCAAGTTAATGGGTGCCATGCAGAAGCAACTTGAGCAAAATCACCTGCAGGGG
In turn, B4 returned a Ki in data set [1] (label: 5'-32P, internal loop variant (CAA opposite TAG)) of 13 nM.

B5: RT6 (ssDNA)
DNA: ATCCGCCTGATTAGCGATACTCAGGCGTTAGGGAAGGGCGTCGAAAGCAGGGTGGGACTTGAGCAAAATCACCTGCAGGGG
B5 gave a Kd in data set [3] of 5 nM. The molecule further came in with a Ki in data set [1] (label: 5'-32P) of 30 nM.

B6: RT26 (ssDNA)
DNA: ATCCGCCTGATTAGCGATACTTACGTGAGCGTGCTGTCCCCTAAAGGTGATACGTCACTTGAGCAAAATCACCTGCAGGGG
In data set [3] (intramolecular primer:template junction with internal loop (AA opposite CG)), B6 showed a Kd of around 1 nM. In data set [1] (label: 5'-32P, intramolecular primer:template junction with internal loop (AA opposite CG)), this molecule yielded a Ki of 2.7 nM. The molecule GGUCCGAAGUGCAACGGGAAAAUGCACU (ssRNA) [RNA pseudoknot (RNA pk)] yielded a dissociation constant Kd in data set [5] of 5 nM. This molecule yielded a Ki in data set [1] (pseudoknot) of 4.7 nM.

B7: RT36 (ssDNA)
DNA: ATCCGCCTGATTAGCGATACTAAGCTCTTAGTTGATGCGCGGTCAAAATTTAAGCTACTTGAGCAAAATCACCTGCAGGGG
In data set [1] (label: 5'-32P, internal loop variant (AA opposite A)), B7 had a Ki of 6.5 nM.
